Measured values: patent US20240083958A1, “G PROTEIN PEPTIDOMIMETICS” (VRIJE UNIVERSITEIT BRUSSEL, priority 2020, published 2024)
Read-outs that look alike come from different tables or passages of the source. Bridge positions count the residues as written; N and C are the ends. Square brackets hold non-standard residues; d marks the D form. Primed or numbered codes have the meaning given here. Azk = residue with azidated side chain, clicked to Pra; Pra′ = residue with alkynyl side chain, clicked to Azk; Cha = N[C@@H](CC1CCCCC1)C(=O)O

Key:
[1] = target: T1, human β2AR (Homo sapiens, UniProt P07550, N187E); experiment: Radioligand binding assay (RLA) with human β2AR, 3H-dihydroalprenolol (DHA) as radioligand, isoproterenol (agonist) as cold competitor, in presence and absence of the peptidomimetic
T1 construct: made in house; host or cells: Sf9 insect cells (Bac-to-Bac baculovirus); membrane extracts
Procedure: β2AR365N constructs were expressed in Sf9 insect cells, using the Bac-to-Bac® Baculovirus Expression System. The membrane extracts were prepared from cells that expressed β2AR. Subsequently, the cell pellet was resuspended in a buffer (1 ml buffer/2×1E7 cells) containing 75 mM Tris pH 7.4, 12.5 mM MgCl2, 1 mM EDTA, Leupeptin and PMSF as protease inhibitors. Afterwards the cells were vortexed and homogenized in ice using a small volume Ultraturrax (6×10 sec). The cells were then centrifuged for 15 min at 16000 rcf, in a pre-cooled centrifuge (4° C.) and resuspended in the previous buffer containing 10% sucrose. Finally, the membranes were again homogenized in ice with the small volume Ultraturrax (3×10 sec). The protein concentration in the membrane fragments was determined using a Pierce BCA Protein Assay Kit and the protein concentration was extrapolated from the Bovine Serum Albumine standard curve.
To perform the radioligand competition binding assays, 96-well plates were used. For the assays on β2AR, the membrane extracts as well as the peptides were prepared in a binding buffer (75 mM Tris pH 7.4, 12.5 mM MgCl2, 1 mM EDTA, 0.2% BSA). The ligand (isoproterenol) and radioligand ([^3H]-dihydroalprenolol) were dissolved in ligand buffer (75 mM Tris pH 7.4, 12.5 mM MgCl2, 1 mM EDTA, 0.2% BSA and 0.1% ascorbic acid), at 1 mM and 2 nM, respectively. A ten-fold dilution series of the ligand was prepared to obtain a dose response curve. For each reaction 100 μl membrane extract, 50 μl ligand, 50 μl peptide or binding buffer containing 1% DMSO and 50 μl of radioligand was added to the V-bottom storage plate, with a total volume of 250 μl per well. Afterwards, the plates were incubated at room temperature for 2 h on a plate shaker (150 rpm). The samples were harvested into filter plates and washed with ice cold washing buffer (75 mM Tris pH 7,4) using the 96-well harvester. The plates were dried for 1 h at 50° C. and then sealed to allow the addition of 30 μl scintillation liquid to each well. Finally, the top of each plate was sealed and the plates were placed in a Wallac MICROBETA® Trilux scintillation counter and incubated for 30 min in the dark.
(§1) After the Microbeta scintillation counter, the experimental data was further analyzed using Graphpad Prism 6.0. After normalization of the raw data, a nonlinear regression was used to fit the data in a one-site binding model, with the total binding set as 100% and the non-specific binding between 0 and 5%. The IC50 values, obtained from the competition curves, were used to determine the shift for each peptide, which is the ratio of IC50 of the agonist test compound on the basal conformation (e.g. IC50 β2AR with no peptidomimetic) versus the active conformation (e.g. IC50 β2AR+peptidomimetic) of the receptor. For certain peptide analogues, a biphasic binding curve was observed and therefore fitted by a two-site model (nonlinear regression), resulting in two IC50 values (IC50Hi and IC50Lo) and a FractionHi, the fraction of receptors in the active state.
Synthesised peptidomimetics were evaluated using a radioligand binding assay (RLA) with a human β2AR, using ^3H-dihydroalprenolol (DHA) as the radioligand and increasing concentrations of isoproterenol (agonist) as cold competitor. In particular, the pharmacological stabilization of the receptor in the active conformation was evaluated by performing the radioligand displacement assay (RLA) in the presence and absence of the peptidomimetics. This validated assay quantifies the pharmacological stabilization of the receptor in the active conformation by comparing the affinities of an agonist for the basal versus the active GPCR conformer (Pardon et al. (2018) Angewandte Chemie International Edition 57, 5292-5295). During the assay, the binding affinity of an orthosteric agonist for the receptor, in particular isoproterenol for human β2AR, in presence and absence of the allosteric peptidomimetic was determined. […]

[2] = target: dopamine 1 receptor (D1R) (Homo sapiens, UniProt P21728); experiment: GPCR-radioligand binding assay (RLA) with dopamine 1 receptor (D1R), [3H]-SCH23390 as radiolabelled antagonist, A-77636 (agonist), in presence and absence of the peptidomimetic; conditions: Table 19; peptidomimetic at 10 μM; ratio IC50 D1R alone / IC50 D1R + peptidomimetic
Sequence of dopamine 1 receptor (D1R) (Homo sapiens, UniProt P21728) (P21728 whole entry): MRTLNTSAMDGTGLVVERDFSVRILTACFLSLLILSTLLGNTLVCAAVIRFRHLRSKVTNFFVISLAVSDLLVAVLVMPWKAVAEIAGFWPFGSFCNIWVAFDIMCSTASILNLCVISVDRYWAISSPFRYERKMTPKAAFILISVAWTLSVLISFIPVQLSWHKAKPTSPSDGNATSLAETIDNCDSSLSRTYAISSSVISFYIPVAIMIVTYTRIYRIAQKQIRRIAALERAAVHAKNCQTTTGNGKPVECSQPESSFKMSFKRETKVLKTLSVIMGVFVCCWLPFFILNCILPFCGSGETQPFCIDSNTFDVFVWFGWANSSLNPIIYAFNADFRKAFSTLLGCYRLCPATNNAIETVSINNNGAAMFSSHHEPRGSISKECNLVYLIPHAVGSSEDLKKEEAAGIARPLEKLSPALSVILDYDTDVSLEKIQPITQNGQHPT
Procedure: For the radioligand assays on D1R a similar buffer, as for β2AR, was used for the ligands, membrane extracts and peptides (+1% DMSO). The competition assay was performed with [^3H]-SCH23390 as radiolabelled antagonist, at a concentration of 2 nM. A ten-fold dilution series of the agonist, A-77636, was prepared to obtain a dose response curve, starting from 100 μM for the receptor alone and 10 μM in the presence of the peptidomimetics. After incubation, the samples were harvested into filter plates, pre-soaked with 0.5% polyethylenimine (PEI), and washed with ice cold washing buffer using the 96-well harvester. After drying in the oven during 1 h and the addition of scintillation liquid, the plates were placed in the MICROBETA® scintillation counter and incubated for 30 min in the dark before reading.
as §1
Peptidomimetics were screened using GPCR-radioligand binding assay (RLA) with dopamine 1 receptor (D1R) binding, using [^3H]-SCH23390 as radiolabelled antagonist, and increasing concentrations of A-77636 (agonist). The half maximal inhibitory concentration (IC50) represents the affinity of the agonist for the receptor. The selectivity is quantified by the shift. “[ ]” denotes cyclic peptides.

[3] = target: T2, human β2AR (human, UniProt P07550 2-365); experiment: cell-based or functional assay
[4] = target: T2, human β2AR; experiment: cell-based or functional assay; remark: listed apart in the source
[5] = target: T2, human β2AR; experiment: cell-based or functional assay; remark: listed apart in the source
[6] = target: T2, human β2AR; experiment: cell-based or functional assay; remark: listed apart in the source
[7] = target: T2, human β2AR; experiment: cell-based or functional assay; remark: listed apart in the source
[8] = target: T2, human β2AR; experiment: cell-based or functional assay; remark: listed apart in the source
[9] = target: T2, human β2AR; experiment: cell-based or functional assay; remark: listed apart in the source
[10] = target: T2, human β2AR; experiment: cell-based or functional assay; remark: listed apart in the source
[11] = target: T2, human β2AR; experiment: cell-based or functional assay; remark: listed apart in the source
[12] = target: T2, human β2AR; experiment: cell-based or functional assay; remark: listed apart in the source
[13] = target: dopamine 1 receptor (D1R) (UniProt P21728 1-446, limits assumed); experiment: cell-based or functional assay
Sequence of dopamine 1 receptor (D1R) (UniProt P21728 1-446, limits assumed) (P21728 whole entry): as above

FNDCRDIIQRMHLRQYELL [compound 2, Ac-FNDCRDIIQRMHLRQYELL-OH]
Shift ([1]; Table 1, ratio IC50 β2AR alone / IC50 β2AR + peptidomimetic): 6 | Shift [2]: 2

Nb80 (VHH)
IC50 (nM) of isoproterenol, [3H]-DHA RLA, Nb80 present [3]: 9.7 nM | Shift [3]: 146

Ac-KKKFN[PraCRDAzk]IQRMHLRQYEChaL-OH (Ac-KKKFN[Pra′]CRD[Azk]IQRMHLRQYE[Cha]L-OH; triazole 6-10) [compound 51]
Fraction HI (%) ([1]; Table 10, peptidomimetic at 1 μM (printed 511 μM), fraction of receptors in the active state): 54% | Fraction HI (%) ([1]; Table 10, peptidomimetic at 10 μM, fraction of receptors in the active state): 76% | Shift ([1]; Table 10, peptidomimetic at 10 μM, ratio IC50 β2AR alone / + peptidomimetic): 175 | Fraction HI (%) ([1]; Table 10, peptidomimetic at 50 μM, fraction of receptors in the active state): 79% | Shift ([1]; Table 10, peptidomimetic at 50 μM, ratio IC50 β2AR alone / + peptidomimetic): 170 | Fraction HI (%) ([1]; Table 10, peptidomimetic at 100 μM, fraction of receptors in the active (high affinity) state, two-site model): 77% | Shift ([1]; Table 10, peptidomimetic at 100 μM, ratio IC50 β2AR alone / + peptidomimetic): 345 | Shift ([1]; Table 10, ratio IC50 β2AR alone / + peptidomimetic): 21 | Shift [2]: 52

Ac-FN[Pra′]CRD[Azk]IQRMHLRQYELL-OH (triazole 3-7) [compound 12]
IC50 (nM) of isoproterenol, [3H]-DHA RLA, peptidomimetic present [4]: 47.3 nM | Shift [4]: 20 | IC50 (nM) of isoproterenol, [3H]-DHA RLA, peptidomimetic present [5]: 38.9 nM | IC50 (nM) of isoproterenol, [3H]-DHA RLA, peptidomimetic present [6]: 37.3 nM | Shift [6]: 31 | Shift (averaged) [7]: 27

Ac-FNDCRDIIQRMHLRQYELL-OH [compound 2]
IC50 (nM) of isoproterenol, [3H]-DHA RLA, peptidomimetic present [8]: 118 nM | IC50 (nM) of isoproterenol, [3H]-DHA RLA, peptidomimetic present [9]: 77.1 nM | Shift [9]: 13 | IC50 (nM) of isoproterenol, [3H]-DHA RLA, peptidomimetic present [10]: 97.6 nM | Shift [10]: 9 | IC50 (nM) of isoproterenol, [3H]-DHA RLA, peptidomimetic present [11]: 79.4 nM | Shift [11]: 10 | Fraction HI (%) [12]: 21% | IC50 (nM) of isoproterenol, [3H]-DHA RLA, peptidomimetic present [12]: 124 nM | Shift [12]: 13 | Shift (averaged) [7]: 10 | IC50 (nM) of A-77636, [3H]-SCH23390 RLA, compound 2 at 10 µM [13]: 5.8 nM

Ac-RDIIQRMHLRQYELL-OH [compound 16]
IC50 (nM) of isoproterenol, [3H]-DHA RLA, peptidomimetic present [8]: 614 nM
